Assays:
P. aeruginosa = test: MIC, modified CLSI broth microdilution in CAA medium without or with […] human serum (Table 4); assay type: cell-based, Pseudomonas aeruginosa; for CAA/HuS MIC: CAA supplemented with 2.5% human serum
Source text: 2015. […] Clinical and Laboratory Standards Institute, Wayne, Pa.

[1] = tested on: Pseudomonas aeruginosa strain CFS-1292 (meropenem resistant); settings: strain CFS-1292; no added cations
Method: The activity of selected GN lysins and constructs in the presence of divalent cations was evaluated, and the impact of divalent cations at physiological concentrations was examined in the MIC assay format.

[2] = tested on: P. aeruginosa strain WC-453; test: Time-kill assay in HEPES or CAA with 25% human serum (Tables 7, 8); assay type: cell-based, Pseudomonas aeruginosa
Method: Exponential phase bacteria were then pelleted and resuspended in 1/5 culture volume of 25 mM HEPES, pH 7.4 before a final adjustment to an optical density corresponding to a McFarland value of 0.5. […] All treatments were incubated at 37° C. with aeration. At time points before the addition of lysin (or buffer control) and at 1 hour and 3 hours intervals thereafter, culture samples were removed for quantitative plating on CAA agar plates.

[3] = tested on: biofilms formed by P. aeruginosa strain ATCC 17646; settings: strain ATCC 17646 biofilm
Method: (§1) Biofilms are then washed and treated with e.g., a 2-fold dilution series of the lysin in TSBg at e.g., 37° C. for 24 hours. After treatment, wells are washed, air-dried at e.g., 37° C. and stained with e.g., 0.05% crystal violet for 10 minutes.

P. aeruginosa isolates = test: MIC against a range of isolates in CAA + […] human serum (Table 11); assay type: cell-based, Pseudomonas aeruginosa
[4] = tested on: Pseudomonas aeruginosa strain CFS-1292 (meropenem resistant); test: MIC in 25% CAA alone, with […] human serum or […] SURVANTA (Table 13); assay type: cell-based
Method: (§2) Materials and methods: MICs were determined by broth microdilution in media supplemented with human serum and pulmonary surfactant ([…]®; Myoderm Clinical Supplies). Minimal biofilm eradicating concentrations (MBECs) were determined using standard methods. […] Fluorescence microscopy was performed after LIVE/DEAD staining (ThermoFisher) and TEM was performed.

[5] = tested on: Pseudomonas aeruginosa biofilm; test: MBEC in CAA supplemented with […] human serum (Table 14); assay type: cell-based
Method: as §1, §2

[6] = tested on: outer membrane of P. aeruginosa (CFS 1292); test: N-phenyl-1-napthylamine (NPN) uptake assay, outer membrane destabilization (Table 15); assay type: cell-based, Pseudomonas aeruginosa; settings: NPN fluorescence, buffer = 100, lysin 100 μg/well
Method: The ability of gram-negative lysins to destabilize the outer membrane of P. aeruginosa was evaluated through the use of an N-phenyl-1-napthylamine (NPN) uptake assay. […] NPN was added to a final concentration of […]. […] Changes in fluorescence were recorded (excitation 1=350 nm; emission 1=420 nm) over two hours.

P. aeruginosa strains = test: Checkerboard synergy with meropenem in 25% CAA and […] human serum (Table 16); assay type: cell-based, Pseudomonas aeruginosa; settings: for FICI value (Run #1), with meropenem / FICI value (Run #2), with meropenem: 25% CAA and […] human serum
[7] = tested on: carbapenem-resistant P. aeruginosa strains; test: Resensitization of carbapenem-resistant strains, combinations with imipenem or meropenem (Tables 18-22); assay type: cell-based, Pseudomonas aeruginosa; settings: for FICI: isolate WC-452
Method: Such resensitization may be determined by combining the present lysins or lysin-AMP polypeptide constructs with an antibiotic in a checkerboard assay as described herein. Antibiotic-resistant bacteria, such as carbapenem-resistant P. aeruginosa, are added to the lysin or lysin-AMP polypeptide construct combination. […] See Clinical and Laboratory Standards Institute (CLSI), CLSI. […] M100 Performance Standards for Antimicrobial Susceptibility Testing; 29th Edition. Clinical and Laboratory Standards Institute, Wayne, Pa., which is herein incorporated by reference in its entirety.
Up to seven carbapenem-resistant isolates were assessed. […] See Clinical and Laboratory Standards Institute (CLSI), CLSI. […] M100 Performance Standards for Antimicrobial Susceptibility Testing; 29th Edition. Clinical and Laboratory Standards Institute, Wayne, Pa.

B1: GN428: lysin obtained from Escherichia virus CBA120 (SEQ ID NO: 60) (protein, listed as Escherichia virus)
chain: MAILKLGNRGSEVKALQQSLNKIGFSLTADGIFGKATENAVKSVQAGAGLVIDGIAGPKTFYAIRNAGDAHQEHLTEADLVDAARELGVELASMKAVNQVESRGTGFTKTGKIKTLFERHIMYKKVTAKFGQARANALYQLYPTLVNPNSGGYIGGDAELERLQGAIALDEDCAYESASYGLFQIMGFNCQICGYSNAKEMFTDFLTGERAHLLAFVKFIKADANMWKALKNKNWAEFARRYNGPAYAKNQYDTKLAAAYKSFC
CAA MIC (P. aeruginosa; CAA medium, no human serum): 8000 µg/mL
CAA/HuS MIC (P. aeruginosa; CAA supplemented with […] human serum): 125 µg/mL
MIC in 25% CAA [1]: 4 µg/mL
bactericidal activity (CFU decrease of 3-Log10, 3 hours after the addition of lysin) ([2]; 10 μg/mL, enumerated lysins in CAA/HuS, general statement for HEPES and CAA/HuS): bactericidal activity
CAA/HuS (Log10 CFU/mL), 1 hr ([2]; CAA + 25% human serum, lysin 10 μg/ml, 1 hr, WC-453): 5.5 Log10 CFU/mL
CAA/HuS (Log10 CFU/mL), 3 hr ([2]; CAA + 25% human serum, lysin 10 μg/ml, 3 hr, WC-453): <3.7 Log10 CFU/mL
MBEC [3]: 1 µg/mL
activity against P. aeruginosa isolates in human serum or SURVANTA (P. aeruginosa isolates; Tables 11 and 12): active against a variety of P. aeruginosa isolates
MIC, CAA + […] Human Serum (P. aeruginosa isolates; strain CFS 1109 (ATCC 17646)): 1 µg/mL
MIC, CAA + […] Human Serum (P. aeruginosa isolates; strain CFS 1292): 2 µg/mL
MIC, CAA + […] Human Serum (P. aeruginosa isolates; strain CFS1539 (PA1)): 1 µg/mL
MIC, CAA + […] Human Serum (P. aeruginosa isolates; strain CFS 1540 (PA2)): 1 µg/mL
MIC, CAA + […] Human Serum (P. aeruginosa isolates; strain CFS 1541 (PA3)): 1 µg/mL
MIC, CAA + […] Human Serum (P. aeruginosa isolates; strain CFS 1557 (PA19)): 4 µg/mL
MIC, CAA + […] Human Serum (P. aeruginosa isolates; strain CFS 1558 (PA20)): 2 µg/mL
MIC, CAA + […] Human Serum (P. aeruginosa isolates; strain CFS 1559 (PA21)): 2 µg/mL
MIC, CAA + […] Human Serum (P. aeruginosa isolates; strain CFS 1560 (PA22)): 2 µg/mL
MIC, CAA + […] Human Serum (P. aeruginosa isolates; strain CFS 1561 (PA23)): 2 µg/mL
MIC, CAA + […] Human Serum (P. aeruginosa isolates; strain CFS 1562 (PA24)): 2 µg/mL
MIC, CAA + […] Human Serum (P. aeruginosa isolates; strain CFS 1596 (PA26)): 1 µg/mL
MIC, CAA + […] Human Serum (P. aeruginosa isolates; strain CFS 1597 (PA27)): 0.5 µg/mL
MIC, CAA + […] Human Serum (P. aeruginosa isolates; strain CFS 1669 (PA41)): 2 µg/mL
MIC, CAA + […] Human Serum (P. aeruginosa isolates; strain CFS 1674 (PA46)): 2 µg/mL
MIC, CAA + […] Human Serum (P. aeruginosa isolates; strain CFS 1675 (PA47)): 1 µg/mL
MIC, CAA + […] Human Serum (P. aeruginosa isolates; strain CFS 1766 (ATCC 27853)): 4 µg/mL
MIC in […] Survanta [4]: 4 µg/mL
MIC in human serum ([…]) in CAA [4]: 0.125 µg/mL
activity in human serum and pulmonary surfactant [4]: active in human serum and pulmonary surfactant
25% CAA MIC ([4]; media alone): 4
MBEC in CAA supplemented with […] human serum [5]: 1 µg/mL
% RFU ([6]; 5 minutes): 194 % RFU
% RFU ([6]; 10 minutes): 242 % RFU
% RFU ([6]; 20 minutes): 271 % RFU
% RFU ([6]; 40 minutes): 250 % RFU
% RFU ([6]; 60 minutes): 183 % RFU
% RFU ([6]; 100 minutes): 137 % RFU
synergy with meropenem (P. aeruginosa strains; FICI less than or equal to 0.5 = potent synergy): exhibited synergy with meropenem
FICI value (Run #1), with meropenem (P. aeruginosa strains; strain CFS 1292): 0.1875
FICI value (Run #2), with meropenem (P. aeruginosa strains; strain CFS 1292): 0.219
FICI value (Run #1), with meropenem (P. aeruginosa strains; strain CFS 1557 (PA19)): 0.1562
FICI value (Run #2), with meropenem (P. aeruginosa strains; strain CFS 1557 (PA19)): 0.198
FICI value (Run #1), with meropenem (P. aeruginosa strains; strain CFS 1558 (PA20)): 0.09375
FICI value (Run #2), with meropenem (P. aeruginosa strains; strain CFS 1558 (PA20)): 0.135
FICI value (Run #2), with meropenem (P. aeruginosa strains; strain CFS 1559 (PA21)): 0.396
FICI value (Run #2), with meropenem (P. aeruginosa strains; strain CFS 1560 (PA22)): 0.229
FICI value (Run #2), with meropenem (P. aeruginosa strains; strain CFS 1561 (PA23)): 0.323
FICI value (Run #2), with meropenem (P. aeruginosa strains; strain CFS 1562 (PA24)): 0.198
FICI value (Run #2), with meropenem (P. aeruginosa strains; strain CFS 1766 (ATCC 27853)): 0.156
resensitization to carbapenems in synergistic combinations ([7]; imipenem (IPM) and meropenem (MEM), carbapenem-resistant isolates): reductions of IPM and MEM MICS to below breakpoint values
FICI ([7]; lysin + imipenem): 0.188
FICI ([7]; lysin + meropenem): 0.188
Antibiotic MIC / Lysin MIC, Alone ([7]; vs. WC-452 (Table 22)): 2
